In paper PMC4678826, “Different genome stability proteins underpin primed and naïve adaptation in E. coli CRISPR-Cas immunity”:

T1: Cas2 (Escherichia coli, UniProt P45956 1-94)
T1 sequence: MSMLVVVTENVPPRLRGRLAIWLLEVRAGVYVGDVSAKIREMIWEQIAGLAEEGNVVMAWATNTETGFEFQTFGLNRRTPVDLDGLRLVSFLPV

T2: Cas1 (Escherichia coli, UniProt Q46896 1-305)
T2 sequence: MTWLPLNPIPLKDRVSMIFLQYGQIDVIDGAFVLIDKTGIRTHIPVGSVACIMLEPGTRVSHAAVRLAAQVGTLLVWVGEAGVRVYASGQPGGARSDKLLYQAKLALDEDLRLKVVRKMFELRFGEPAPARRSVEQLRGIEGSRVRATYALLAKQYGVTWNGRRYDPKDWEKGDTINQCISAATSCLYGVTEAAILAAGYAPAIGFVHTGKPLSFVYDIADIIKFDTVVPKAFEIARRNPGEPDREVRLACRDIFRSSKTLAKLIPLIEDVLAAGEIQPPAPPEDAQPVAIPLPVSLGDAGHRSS


Tests used:
Cas2 = biological target: T1, Cas2; assay: EMSA; 5 mM EDTA; EMSA: 7 mM Tris-HCl pH 8.5, 9% glycerol, 50 mM NaCl, 100 ug/ml BSA, 5 mM EDTA, 10 min ambient temperature, 6 nM DNA, 5% acrylamide TBE gel at room temperature; details: protein: recombinant; tags: N-terminal His6; chain copies: 2; label: 5'-32P; fork; 25 nt leading arm duplex, 26 nt ssDNA flap
Cas1 [1] = biological target: T2, Cas1; assay: EMSA; 5 mM EDTA; Cas1 0.1-25 nM, DNA 6 nM; EMSA: 7 mM Tris-HCl pH 8.5, 9% glycerol, 50 mM NaCl, 100 ug/ml BSA, 5 mM EDTA, 10 min ambient temperature, 6 nM DNA, 5% acrylamide TBE gel at room temperature; details: protein: recombinant; tags: N-terminal His6; chain copies: 2; label: 5'-32P; fork; 25 nt leading arm duplex, 26 nt ssDNA flap
Cas1 [2] = biological target: T2, Cas1; assay: EMSA; 5 mM EDTA; Cas1 25 nM, DNA 6 nM; similar to fork-1; EMSA: 7 mM Tris-HCl pH 8.5, 9% glycerol, 50 mM NaCl, 100 ug/ml BSA, 5 mM EDTA, 10 min ambient temperature, 6 nM DNA, 5% acrylamide TBE gel at room temperature; details: protein: recombinant; tags: N-terminal His6; chain copies: 2; label: 5'-32P; fork with 4 nt ssDNA gap at branch point

Binder	binding result (Cas2)	binding result (Cas1 [1])	binding result (Cas1 [2])
fork-1 (mixed) DNA 1: CAACGTCATAGACGATTACATTGCTACATGGAGCTGTCTAGAGGATCCGA DNA 2: TCGGATCCTCTAGACAGCTCCATGATCACTGGCACTGGTAGAATTCGGC DNA 3: GCCGAATTCTACCAGTGCCAGTGAT	no binding	binds	
fork-1a (mixed) DNA 1: CAACGTCATAGACGATTACATTGCTACATGGAGCTGTCTAGAGGATCCGA DNA 2: TCGGATCCTCTAGACAGCTCCATGATCACTGGCACTGGTAGAATTCGGC DNA 3: GCCGAATTCTACCAGTGCCAGTGAT DNA 4: AATGTAATCGTCTATGACGTTG			binds
